# Measured values from paper PMC13345634, “Dynamic assembly of malate dehydrogenase–citrate synthase multienzyme complex in the mitochondria” (eLife, 2026).
# Tests used:
# [1] = biological target: T1, recombinant CIT1 (without the mitochondrial targeting signal, C-terminal 6x His tag) (S. cerevisiae, UniProt P00890 38-479); test: MST; fluorescently labeled MDH1 as the target, CIT1 as the ligand (two-fold serial dilution of 80 µM, 16 concentrations); Monolith NT.115, room temperature; 50 mM Tris, 150 mM NaCl, 10 mM MgCl2, 5 mM DTT, 0.05% Tween-20; pH 6.4; details: both partners purified
# T1 construct: By the primers and the NdeI/XhoI sites of pET21b the chain should begin with an added Met and carry LE before the His6; also called recombinant yeast CIT1; pET-cit1; source: E. coli BL21 (DE3), pET21b, purified (Ni-NTA His SpinTrap columns)
# T1 sequence (looked up): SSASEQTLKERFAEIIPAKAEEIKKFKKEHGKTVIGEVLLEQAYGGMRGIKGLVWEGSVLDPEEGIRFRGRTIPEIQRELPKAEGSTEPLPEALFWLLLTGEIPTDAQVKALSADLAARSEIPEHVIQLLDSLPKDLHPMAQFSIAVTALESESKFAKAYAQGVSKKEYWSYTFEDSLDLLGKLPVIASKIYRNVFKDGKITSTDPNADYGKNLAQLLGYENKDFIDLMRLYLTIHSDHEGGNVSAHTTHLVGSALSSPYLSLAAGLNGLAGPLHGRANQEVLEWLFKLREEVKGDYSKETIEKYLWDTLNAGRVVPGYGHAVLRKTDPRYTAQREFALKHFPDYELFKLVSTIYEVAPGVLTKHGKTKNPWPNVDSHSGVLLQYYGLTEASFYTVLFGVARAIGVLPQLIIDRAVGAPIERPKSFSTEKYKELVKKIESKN
# [2] = biological target: T1, recombinant CIT1 (without the …); test: MST; fluorescently labeled MDH1 as the target, CIT1 as the ligand (two-fold serial dilution of 80 µM, 16 concentrations); Monolith NT.115, room temperature; 50 mM Tris, 150 mM NaCl, 10 mM MgCl2, 5 mM DTT, 0.05% Tween-20; pH 6.0; details: both partners purified
# [3] = biological target: T1, recombinant CIT1 (without the …); test: MST; fluorescently labeled MDH1 as the target, CIT1 as the ligand (two-fold serial dilution of 80 µM, 16 concentrations); Monolith NT.115, room temperature; 50 mM Tris, 150 mM NaCl, 10 mM MgCl2, 5 mM DTT, 0.05% Tween-20; pH 7.2; details: both partners purified
# [4] = biological target: T2, recombinant MDH1 (without the mitochondrial targeting signal, C-terminal 6x His tag), fluorescently labeled (S. cerevisiae, UniProt P17505 18-334, fluorescent label (Protein Labeling Kit RED-NHS 2nd Generation)); test: MST; 10 mM malate
# T2 chain: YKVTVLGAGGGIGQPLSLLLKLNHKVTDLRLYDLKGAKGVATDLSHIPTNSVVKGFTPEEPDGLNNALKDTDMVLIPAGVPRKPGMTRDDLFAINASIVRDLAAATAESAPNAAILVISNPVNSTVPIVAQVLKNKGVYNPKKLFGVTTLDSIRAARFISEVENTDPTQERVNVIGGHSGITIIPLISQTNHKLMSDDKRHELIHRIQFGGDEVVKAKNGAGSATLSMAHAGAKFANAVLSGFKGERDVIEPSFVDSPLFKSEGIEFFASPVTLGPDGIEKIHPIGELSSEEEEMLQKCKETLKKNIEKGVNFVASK
# [5] = biological target: T2, recombinant MDH1 (without the …); test: MST; pH 6.8
# [6] = biological target: T2, recombinant MDH1 (without the …); test: MST; 10 mM fumarate
# [7] = biological target: T2, recombinant MDH1 (without the …); test: MST; control (no metabolite)
Binder,Kd [1],Kd [2],Kd [3],Kd [4],Kd [5],Kd [6],Kd [7]
"recombinant MDH1 (without the mitochondrial targeting signal, C-terminal 6x His tag), fluorescently labeled (enzyme, S. cerevisiae, UniProt P17505 18-334, looked up, fluorescent label (Protein Labeling Kit RED-NHS 2nd Generation), By the primers and the NdeI/XhoI sites of pET21b the chain should begin with an added Met and carry LE before the His6; also called recombinant yeast MDH1; labeled MDH1; source: E. coli BL21 (DE3), pET21b, purified (Ni-NTA His SpinTrap columns)) YKVTVLGAGGGIGQPLSLLLKLNHKVTDLRLYDLKGAKGVATDLSHIPTNSVVKGFTPEEPDGLNNALKDTDMVLIPAGVPRKPGMTRDDLFAINASIVRDLAAATAESAPNAAILVISNPVNSTVPIVAQVLKNKGVYNPKKLFGVTTLDSIRAARFISEVENTDPTQERVNVIGGHSGITIIPLISQTNHKLMSDDKRHELIHRIQFGGDEVVKAKNGAGSATLSMAHAGAKFANAVLSGFKGERDVIEPSFVDSPLFKSEGIEFFASPVTLGPDGIEKIHPIGELSSEEEEMLQKCKETLKKNIEKGVNFVASK",223 nM,33 nM,3480 nM,–,–,–,–
"recombinant CIT1 (without the mitochondrial targeting signal, C-terminal 6x His tag) (enzyme) SSASEQTLKERFAEIIPAKAEEIKKFKKEHGKTVIGEVLLEQAYGGMRGIKGLVWEGSVLDPEEGIRFRGRTIPEIQRELPKAEGSTEPLPEALFWLLLTGEIPTDAQVKALSADLAARSEIPEHVIQLLDSLPKDLHPMAQFSIAVTALESESKFAKAYAQGVSKKEYWSYTFEDSLDLLGKLPVIASKIYRNVFKDGKITSTDPNADYGKNLAQLLGYENKDFIDLMRLYLTIHSDHEGGNVSAHTTHLVGSALSSPYLSLAAGLNGLAGPLHGRANQEVLEWLFKLREEVKGDYSKETIEKYLWDTLNAGRVVPGYGHAVLRKTDPRYTAQREFALKHFPDYELFKLVSTIYEVAPGVLTKHGKTKNPWPNVDSHSGVLLQYYGLTEASFYTVLFGVARAIGVLPQLIIDRAVGAPIERPKSFSTEKYKELVKKIESKN",–,–,–,367 nM,2720 nM,288 nM,6070 nM
